In data set [1] the test system is T1, TnpA IS1535 (WT) (Mycobacterium tuberculosis), ORF:81838cbf.
T1 sequence: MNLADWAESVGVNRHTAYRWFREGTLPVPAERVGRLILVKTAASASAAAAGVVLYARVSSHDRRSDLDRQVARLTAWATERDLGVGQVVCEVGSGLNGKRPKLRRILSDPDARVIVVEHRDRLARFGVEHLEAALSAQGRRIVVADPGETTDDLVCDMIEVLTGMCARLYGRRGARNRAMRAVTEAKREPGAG
Kind of data set: EMSA. For orientation: Mobility shift assays separate free from complexed probe on a gel.

Data set [2] has as its system TnpA IS1535 (WT) (Mycobacterium tuberculosis). Kind of data set: EMSA.
Data set [3] addresses TnpA^IS1535, full length, wild type (Mycobacterium tuberculosis). In words: native gel or EMSA; TnpA (32 nM) and TnpA-MBP (8 to 256 nM), alone or mixed, incubated with the IS1535 LEΔ54 DNA probe, which gives only complex I; oligomer bound to DNA judged from the absence of a band of intermediate mobility.
For data set [4], the target named is TnpA^ISC1926 C-terminal domain (CTD), residues 65-221 (Sulfolobus islandicus). In words: crystal structure; TnpA^ISC1926 CTD (65-221), hanging drop, 20 mM MOPS pH 7.0, 100 mM Na-acetate, 0.1 mM DTT mixed with 8% tacsimate pH 4.0, 20% PEG3350, 25°C; 2.9 Å; two dimers in the asymmetric unit.

A value given as a limit tells only on which side of the number the result lay.

On to “AAAAAGAATTCCGACTCCGCCCAATCCGCCAGATTCACGCCGCCAATTAGAACACACTAACGCACACTAAAACACACTCAACACGCAACAGCTCTGAACCCCAGAGCGTTGGCCGACAAGCGCCCACCACACACGGACGTCTTTTT (double strand) [IS1535 LE 149 bp]”, for which the K half in data set [1] is below 10 nM.

In data set [2], IS1535 LE 149 bp came in with a K half below 10 nM. IS1535 RE 139 bp: the binding signal in data set [2] (scale: % of probe as PEC) worked out at 3. For orientation: stoichiometry N means a count of units in the complex or per binding partner. As to “TnpA^IS1535, full length, wild type (enzyme)”, the stoichiometry N in data set [3] came to 2. In data set [4], “TnpA^ISC1926 C-terminal domain (CTD), residues 65-221 (domain or fragment)” showed a stoichiometry N of 2.
